Results as given in US20170056486A1.

What was measured:
HLA-A*24 (human) [1] = assay: UV-exchange ELISA (anti-b2m); yield 20%-49%
HLA-A*24 (human) [2] = assay: UV-exchange ELISA (anti-b2m); yield >=75%

## VYTPVLEHL
HLA-A*24 (human) [1]
  peptide exchange yield: 20 to 49%

## VYNAVSTSF
HLA-A*24 (human) [1]
  peptide exchange yield: 20 to 49%

## KFFDDLGDELLF
HLA-A*24 (human) [1]
  peptide exchange yield: 20 to 49%

## IYKWITDNF
HLA-A*24 (human) [2]
  peptide exchange yield: > 75%

## YYMELTKLLL
HLA-A*24 (human) [2]
  peptide exchange yield: > 75%

## KYTSYILAF
HLA-A*24 (human) [1]
  peptide exchange yield: 20 to 49%

## RYLTISNLQF
HLA-A*24 (human) [2]
  peptide exchange yield: > 75%

## FYTLPFHLI
HLA-A*24 (human) [2]
  peptide exchange yield: > 75%

## QYPFHVPLL
HLA-A*24 (human) [2]
  peptide exchange yield: > 75%

## VFIFKGNEF
HLA-A*24 (human) [2]
  peptide exchange yield: > 75%

## QYLEKYYNL
HLA-A*24 (human) [2]
  peptide exchange yield: > 75%

## AYAQLGYLLF
HLA-A*24 (human) [2]
  peptide exchange yield: > 75%

## IYSVGAFENF
HLA-A*24 (human) [2]
  peptide exchange yield: > 75%

## QYLVHVNDL
HLA-A*24 (human) [2]
  peptide exchange yield: > 75%

## VFTTSSNIF
HLA-A*24 (human) [2]
  peptide exchange yield: > 75%

## AYAANVHYL
HLA-A*24 (human) [2]
  peptide exchange yield: > 75%

## GYIRGSWQF
HLA-A*24 (human) [2]
  peptide exchange yield: > 75%

## IFTDIFHYL
HLA-A*24 (human) [2]
  peptide exchange yield: > 75%

## DYVGFTLKI
HLA-A*24 (human) [1]
  peptide exchange yield: 20 to 49%

## NYLDVATFL
HLA-A*24 (human) [2]
  peptide exchange yield: > 75%

## TYLEKIDGF
HLA-A*24 (human) [2]
  peptide exchange yield: > 75%

## AFIETPIPLF
HLA-A*24 (human) [2]
  peptide exchange yield: > 75%

## IYAGVGEFSF
HLA-A*24 (human) [2]
  peptide exchange yield: > 75%

## VFKSEGAYF
HLA-A*24 (human) [2]
  peptide exchange yield: > 75%

## SYAPPSEDLF
HLA-A*24 (human) [1]
  peptide exchange yield: 20 to 49%

## SYAPPSEDLFL
HLA-A*24 (human) [1]
  peptide exchange yield: 20 to 49%

## SYVASFFLL
HLA-A*24 (human) [1]
  peptide exchange yield: 20 to 49%

## IYISNSIYF
HLA-A*24 (human) [2]
  peptide exchange yield: > 75%

## SYSEIKDFL
HLA-A*24 (human) [2]
  peptide exchange yield: > 75%

## KYIGNLDLL
HLA-A*24 (human) [2]
  peptide exchange yield: > 75%

## TFITQSPLL
HLA-A*24 (human) [2]
  peptide exchange yield: > 75%

## MYLKLVQLF
HLA-A*24 (human) [1]
  peptide exchange yield: 20 to 49%

## AFADVSVKF
HLA-A*24 (human) [2]
  peptide exchange yield: > 75%

## KYLSVQLTL
HLA-A*24 (human) [1]
  peptide exchange yield: 20 to 49%

## AFPTFSVQL
HLA-A*24 (human) [2]
  peptide exchange yield: > 75%

## RYHPTTCTI
HLA-A*24 (human) [2]
  peptide exchange yield: > 75%

## KYPDIASPTF
HLA-A*24 (human) [1]
  peptide exchange yield: 20 to 49%

## AFGQETNVPLNNF
HLA-A*24 (human) [2]
  peptide exchange yield: > 75%

## YFIKSPPSQLF
HLA-A*24 (human) [1]
  peptide exchange yield: 20 to 49%

## VYMNVMTRL
HLA-A*24 (human) [2]
  peptide exchange yield: > 75%

## GYIKLINFI
HLA-A*24 (human) [2]
  peptide exchange yield: > 75%

## VYSSQFETI
HLA-A*24 (human) [2]
  peptide exchange yield: > 75%

## LYTETRLQF
HLA-A*24 (human) [2]
  peptide exchange yield: > 75%

## SYLNEAFSF
HLA-A*24 (human) [2]
  peptide exchange yield: > 75%

## SFLNIEKTEILF
HLA-A*24 (human) [1]
  peptide exchange yield: 20 to 49%

## IFITKALQI
HLA-A*24 (human) [1]
  peptide exchange yield: 20 to 49%

## RFLMKSYSF
HLA-A*24 (human) [2]
  peptide exchange yield: > 75%

## RYVFPLPYL
HLA-A*24 (human) [2]
  peptide exchange yield: > 75%

## KQLDIANYELF
HLA-A*24 (human) [2]
  peptide exchange yield: > 75%

## KYGTLDVTF
HLA-A*24 (human) [2]
  peptide exchange yield: > 75%

## QYLDVLHAL
HLA-A*24 (human) [2]
  peptide exchange yield: > 75%

## TYNPNLQDKL
HLA-A*24 (human) [2]
  peptide exchange yield: > 75%

## SYGTILSHI
HLA-A*24 (human) [2]
  peptide exchange yield: > 75%

## VYPDTVALTF
HLA-A*24 (human) [1]
  peptide exchange yield: 20 to 49%

## FFHEGQYVF
HLA-A*24 (human) [2]
  peptide exchange yield: > 75%

## KYGDFKLLEF
HLA-A*24 (human) [2]
  peptide exchange yield: > 75%

## FYPQIINTF
HLA-A*24 (human) [2]
  peptide exchange yield: > 75%

## VYPHFSTTNLI
HLA-A*24 (human) [2]
  peptide exchange yield: > 75%

## SYQVIFQHF
HLA-A*24 (human) [2]
  peptide exchange yield: > 75%

## TYIDTRTVF
HLA-A*24 (human) [2]
  peptide exchange yield: > 75%

## AYKSEVVYF
HLA-A*24 (human) [2]
  peptide exchange yield: > 75%

## KFDDVTMLF
HLA-A*24 (human) [2]
  peptide exchange yield: > 75%

## NYENKQYLF
HLA-A*24 (human) [2]
  peptide exchange yield: > 75%

## KYYRQTLLF
HLA-A*24 (human) [1]
  peptide exchange yield: 20 to 49%

## EYLQNLNHI
HLA-A*24 (human) [2]
  peptide exchange yield: > 75%

## KYTHFIQSF
HLA-A*24 (human) [2]
  peptide exchange yield: > 75%

## KYSDVKNLI
HLA-A*24 (human) [2]
  peptide exchange yield: > 75%

## NYMPGQLTI
HLA-A*24 (human) [2]
  peptide exchange yield: > 75%

## QFITSTNTF
HLA-A*24 (human) [2]
  peptide exchange yield: > 75%

## NYGVLHVTF
HLA-A*24 (human) [2]
  peptide exchange yield: > 75%

## VYNYAEQTL
HLA-A*24 (human) [1]
  peptide exchange yield: 20 to 49%

## SYAELGTTI
HLA-A*24 (human) [1]
  peptide exchange yield: 20 to 49%

## VFIDHPVHL
HLA-A*24 (human) [2]
  peptide exchange yield: > 75%

## VFIAQGYTL
HLA-A*24 (human) [2]
  peptide exchange yield: > 75%

## VYTGIDHHW
HLA-A*24 (human) [2]
  peptide exchange yield: > 75%
